T1: cynomolgus monkey transferrin receptor 1 (cTfR1) (cynomolgus monkey (Macaca fascicularis), UniProt Q5RDH6 89-760 (Pongo abelii entry), limits assumed)
T1 construct: Recombinant cynomolgus TfR1; also called cyTfR1; cyno TfR1
T1 chain: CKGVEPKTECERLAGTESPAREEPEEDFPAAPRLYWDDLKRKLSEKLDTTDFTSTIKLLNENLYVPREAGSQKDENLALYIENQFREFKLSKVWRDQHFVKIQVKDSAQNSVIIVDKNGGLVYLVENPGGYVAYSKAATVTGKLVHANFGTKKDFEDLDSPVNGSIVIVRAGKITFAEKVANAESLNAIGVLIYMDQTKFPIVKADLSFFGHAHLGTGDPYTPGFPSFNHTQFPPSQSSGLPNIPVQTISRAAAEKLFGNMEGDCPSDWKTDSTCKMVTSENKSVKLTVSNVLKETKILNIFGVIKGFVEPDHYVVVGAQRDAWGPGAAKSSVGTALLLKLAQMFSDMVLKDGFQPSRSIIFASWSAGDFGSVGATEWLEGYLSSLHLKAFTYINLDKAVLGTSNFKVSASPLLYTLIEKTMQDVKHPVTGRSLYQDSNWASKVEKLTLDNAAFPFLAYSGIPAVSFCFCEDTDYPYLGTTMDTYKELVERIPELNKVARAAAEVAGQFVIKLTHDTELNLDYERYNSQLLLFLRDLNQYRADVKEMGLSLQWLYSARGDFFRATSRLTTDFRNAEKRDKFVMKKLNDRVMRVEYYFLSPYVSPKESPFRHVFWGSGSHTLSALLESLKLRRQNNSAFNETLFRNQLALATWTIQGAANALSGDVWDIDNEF


Assays:
[1] = target: T1, cynomolgus monkey transferrin receptor …; test: ELISA, cyno TfR1, Fab after 9 days at 40 C
[2] = target: T1, cynomolgus monkey transferrin receptor …; test: ELISA, cyno TfR1, Fab, day 0 of thermal stability test
[3] = target: T1, cynomolgus monkey transferrin receptor …; test: ELISA on plate-coated cyno TfR1, unconjugated Fab
[4] = target: T1, cynomolgus monkey transferrin receptor …; test: ELISA, cyno TfR1, Fab-ASO300 conjugate
[5] = target: T1, cynomolgus monkey transferrin receptor …; test: ELISA on plate-coated cyno TfR1, Fab-ASO300 conjugate
[6] = target: T2, human transferrin receptor 1 (hTfR1) (human, UniProt P02786 89-760); test: ELISA on plate-coated human TfR1, Fab-ASO300 conjugate
T2 construct: Recombinant human TfR1; also called huTfR1; Human TfR1
T2 sequence (P02786 89-760 limits assumed): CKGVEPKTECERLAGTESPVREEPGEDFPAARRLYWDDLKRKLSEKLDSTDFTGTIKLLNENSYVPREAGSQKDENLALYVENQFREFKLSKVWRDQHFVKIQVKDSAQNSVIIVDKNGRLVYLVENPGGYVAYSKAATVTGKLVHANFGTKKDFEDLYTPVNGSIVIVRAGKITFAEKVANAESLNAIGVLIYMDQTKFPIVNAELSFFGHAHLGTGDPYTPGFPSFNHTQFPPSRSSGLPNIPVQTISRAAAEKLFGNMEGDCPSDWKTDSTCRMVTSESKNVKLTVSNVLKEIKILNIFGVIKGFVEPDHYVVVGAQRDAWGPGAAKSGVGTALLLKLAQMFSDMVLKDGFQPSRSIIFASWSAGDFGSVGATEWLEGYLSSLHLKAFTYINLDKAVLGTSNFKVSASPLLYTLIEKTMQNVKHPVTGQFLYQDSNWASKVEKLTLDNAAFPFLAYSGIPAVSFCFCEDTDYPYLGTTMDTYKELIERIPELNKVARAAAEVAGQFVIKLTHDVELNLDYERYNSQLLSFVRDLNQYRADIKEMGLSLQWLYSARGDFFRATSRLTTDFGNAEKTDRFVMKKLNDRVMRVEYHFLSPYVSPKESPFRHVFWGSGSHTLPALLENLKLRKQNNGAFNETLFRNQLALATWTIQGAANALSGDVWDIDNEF

Binding affinity cyno TfR1 d 9 [1]	Binding affinity cyno TfR1 d 0 [2]	Fab binding affinity ELISA [3]	DMPK oligo conjugate binding to cyno TfR1 [4]	Conjugate binding affinity ELISA [5]	Conjugate binding affinity ELISA [6]	Binder
19.5 nM	9.9 nM	9.9 nM	–	–	–	humanized anti-TfR Fab 3M12 VH3/Vk2 (Fab, V domains shown) VH: QVQLQESGPGLVKPSQTLSLTCSVTGYSITSGYYWNWIRQPPGKGLEWMGYITFDGANNYNPSLKNRVSISRDTSKNQFSLKLSSVTAEDTATYYCTRSSYDYDVLDYWGQGTTVTVSS VL: DIQMTQSPSSLSASVGDRVTITCRASQDISNFLNWYQQKPGQPVKLLIYYTSRLHSGVPSRFSGSGSGTDFTLTISSLQPEDFATYFCQQGHTLPYTFGQGTKLEIKR
–	–	–	2.26 nM	2.9 nM	2.2 nM	humanized anti-TfR Fab 3M12 VH3/Vk2 conjugated to DMPK-targeting oligonucleotide ASO300 (Fab, V domains shown, Fab conjugated to oligonucleotide ASO300; chain and residue not stated, Fab-oligonucleotide conjugate; The protein chains are those of the unconjugated Fab) VH: QVQLQESGPGLVKPSQTLSLTCSVTGYSITSGYYWNWIRQPPGKGLEWMGYITFDGANNYNPSLKNRVSISRDTSKNQFSLKLSSVTAEDTATYYCTRSSYDYDVLDYWGQGTTVTVSS VL: DIQMTQSPSSLSASVGDRVTITCRASQDISNFLNWYQQKPGQPVKLLIYYTSRLHSGVPSRFSGSGSGTDFTLTISSLQPEDFATYFCQQGHTLPYTFGQGTKLEIKR
15.6 nM	4.7 nM	4.7 nM	–	–	–	humanized anti-TfR Fab 3M12 VH3/Vk3 (Fab, V domains shown) VH: QVQLQESGPGLVKPSQTLSLTCSVTGYSITSGYYWNWIRQPPGKGLEWMGYITFDGANNYNPSLKNRVSISRDTSKNQFSLKLSSVTAEDTATYYCTRSSYDYDVLDYWGQGTTVTVSS VL: DIQMTQSPSSLSASVGDRVTITCRASQDISNFLNWYQQKPGQPVKLLIYYTSRLHSGVPSRFSGSGSGTDFTLTISSLQPEDFATYYCQQGHTLPYTFGQGTKLEIKR
–	–	–	1.85 nM	2.1 nM	1.7 nM	humanized anti-TfR Fab 3M12 VH4/Vk3 conjugated to DMPK-targeting oligonucleotide ASO300 (Fab, V domains shown, Fab conjugated to oligonucleotide ASO300; chain and residue not stated, Fab-oligonucleotide conjugate; The protein chains are those of the unconjugated Fab) VH: QVQLQESGPGLVKPSQTLSLTCTVTGYSITSGYYWNWIRQPPGKGLEWIGYITFDGANNYNPSLKNRVSISRDTSKNQFSLKLSSVTAEDTATYYCTRSSYDYDVLDYWGQGTTVTVSS VL: DIQMTQSPSSLSASVGDRVTITCRASQDISNFLNWYQQKPGQPVKLLIYYTSRLHSGVPSRFSGSGSGTDFTLTISSLQPEDFATYYCQQGHTLPYTFGQGTKLEIKR
5.01 nM	1.4 nM	1.4 nM	–	–	–	humanized anti-TfR Fab 3M12 VH4/Vk2 (Fab, V domains shown) VH: QVQLQESGPGLVKPSQTLSLTCTVTGYSITSGYYWNWIRQPPGKGLEWIGYITFDGANNYNPSLKNRVSISRDTSKNQFSLKLSSVTAEDTATYYCTRSSYDYDVLDYWGQGTTVTVSS VL: DIQMTQSPSSLSASVGDRVTITCRASQDISNFLNWYQQKPGQPVKLLIYYTSRLHSGVPSRFSGSGSGTDFTLTISSLQPEDFATYFCQQGHTLPYTFGQGTKLEIKR
128 nM	156 nM	156 nM	–	–	–	humanized anti-TfR Fab 3A4 VH3 (N54T)/Vk4 (Fab, V domains shown) VH: EVQLVQSGSELKKPGASVKVSCTASGFNIKDDYMYWVRQPPGKGLEWIGWIDPETGDTEYASKFQDRVTVTADTSTNTAYMELSSLRSEDTAVYYCTLWLRRGLDYWGQGTLVTVSS VL: DIVMTQSPLSLPVTPGEPASISCRSSKSLLHSNGYTYLFWFQQRPGQSPRLLIYRMSNLASGVPDRFSGSGSGTDFTLKISRVEAEDVGVYYCMQHLEYPFTFGGGTKVEIKR
–	–	–	5.12 nM	4.7 nM	2.8 nM	humanized anti-TfR Fab 3A4 VH3 (N54T)/Vk4 conjugated to DMPK-targeting oligonucleotide ASO300 (Fab, V domains shown, Fab conjugated to oligonucleotide ASO300; chain and residue not stated, Fab-oligonucleotide conjugate; The protein chains are those of the unconjugated Fab) VH: EVQLVQSGSELKKPGASVKVSCTASGFNIKDDYMYWVRQPPGKGLEWIGWIDPETGDTEYASKFQDRVTVTADTSTNTAYMELSSLRSEDTAVYYCTLWLRRGLDYWGQGTLVTVSS VL: DIVMTQSPLSLPVTPGEPASISCRSSKSLLHSNGYTYLFWFQQRPGQSPRLLIYRMSNLASGVPDRFSGSGSGTDFTLKISRVEAEDVGVYYCMQHLEYPFTFGGGTKVEIKR
–	–	–	7.59 nM	7.6 nM	2.8 nM	humanized anti-TfR Fab 3A4 VH3/Vk4 conjugated to DMPK-targeting oligonucleotide ASO300 (Fab, V domains shown, Fab conjugated to oligonucleotide ASO300; chain and residue not stated, Fab-oligonucleotide conjugate; The protein chains are those of the unconjugated Fab) VH: EVQLVQSGSELKKPGASVKVSCTASGFNIKDDYMYWVRQPPGKGLEWIGWIDPENGDTEYASKFQDRVTVTADTSTNTAYMELSSLRSEDTAVYYCTLWLRRGLDYWGQGTLVTVSS VL: DIVMTQSPLSLPVTPGEPASISCRSSKSLLHSNGYTYLFWFQQRPGQSPRLLIYRMSNLASGVPDRFSGSGSGTDFTLKISRVEAEDVGVYYCMQHLEYPFTFGGGTKVEIKR
–	–	–	4.1 nM	7.8 nM	2.9 nM	humanized anti-TfR Fab 3A4 VH3 (N54S)/Vk4 conjugated to DMPK-targeting oligonucleotide ASO300 (Fab, V domains shown, Fab conjugated to oligonucleotide ASO300; chain and residue not stated, Fab-oligonucleotide conjugate; The protein chains are those of the unconjugated Fab) VH: EVQLVQSGSELKKPGASVKVSCTASGFNIKDDYMYWVRQPPGKGLEWIGWIDPESGDTEYASKFQDRVTVTADTSTNTAYMELSSLRSEDTAVYYCTLWLRRGLDYWGQGTLVTVSS VL: DIVMTQSPLSLPVTPGEPASISCRSSKSLLHSNGYTYLFWFQQRPGQSPRLLIYRMSNLASGVPDRFSGSGSGTDFTLKISRVEAEDVGVYYCMQHLEYPFTFGGGTKVEIKR
0.26 nM	3.3 nM	3.3 nM	–	–	–	humanized anti-TfR Fab 5H12 VH5 (C33Y)/Vk4 (Fab, V domains shown, also called 5H12 (VH4-C33Y/Vk4)) VH: QVQLVQSGAEVKKPGASVKVSCKASGYSFTDYYINWVRQAPGQGLEWMGWIYPGSGNTRYSERFKGRVTITRDTSASTAYMELSSLRSEDTAVYYCAREDYYPYHGMDYWGQGTLVTVSS VL: DIVMTQSPDSLAVSLGERATINCRASESVDGYDNSFMHWYQQKPGQPPKLLIFRASNLESGVPDRFSGSGSGTDFTLTISSLQAEDVAVYYCQQSSEDPWTFGQGTKLEIKR
–	–	–	13.9 nM	3.3 nM	23.7 nM	humanized anti-TfR Fab 5H12 VH5 (C33Y)/Vk4 conjugated to DMPK-targeting oligonucleotide ASO300 (Fab, V domains shown, Fab conjugated to oligonucleotide ASO300; chain and residue not stated, Fab-oligonucleotide conjugate; also called 5H12 (VH4-C33Y/Vk4) conjugate) VH: QVQLVQSGAEVKKPGASVKVSCKASGYSFTDYYINWVRQAPGQGLEWMGWIYPGSGNTRYSERFKGRVTITRDTSASTAYMELSSLRSEDTAVYYCAREDYYPYHGMDYWGQGTLVTVSS VL: DIVMTQSPDSLAVSLGERATINCRASESVDGYDNSFMHWYQQKPGQPPKLLIFRASNLESGVPDRFSGSGSGTDFTLTISSLQAEDVAVYYCQQSSEDPWTFGQGTKLEIKR
–	–	–	–	2.3 nM	33.4 nM	humanized anti-TfR Fab 5H12 VH5 (C33Y)/Vk3 conjugated to DMPK-targeting oligonucleotide ASO300 (Fab, V domains shown, Fab conjugated to oligonucleotide ASO300; chain and residue not stated, Fab-oligonucleotide conjugate; The protein chains are those of the unconjugated Fab) VH: QVQLVQSGAEVKKPGASVKVSCKASGYSFTDYYINWVRQAPGQGLEWMGWIYPGSGNTRYSERFKGRVTITRDTSASTAYMELSSLRSEDTAVYYCAREDYYPYHGMDYWGQGTLVTVSS VL: DIVLTQSPDSLAVSLGERATINCRASESVDGYDNSFMHWYQQKPGQPPKLLIFRASNLESGVPDRFSGSGSRTDFTLTISSLQAEDVAVYYCQQSSEDPWTFGQGTKLEIKR
–	–	–	10.2 nM	10.2 nM	110 nM	humanized anti-TfR Fab 5H12 VH5 (C33D)/Vk4 conjugated to DMPK-targeting oligonucleotide ASO300 (Fab, V domains shown, Fab conjugated to oligonucleotide ASO300; chain and residue not stated, Fab-oligonucleotide conjugate; The protein chains are those of the unconjugated Fab) VH: QVQLVQSGAEVKKPGASVKVSCKASGYSFTDYDINWVRQAPGQGLEWMGWIYPGSGNTRYSERFKGRVTITRDTSASTAYMELSSLRSEDTAVYYCAREDYYPYHGMDYWGQGTLVTVSS VL: DIVMTQSPDSLAVSLGERATINCRASESVDGYDNSFMHWYQQKPGQPPKLLIFRASNLESGVPDRFSGSGSGTDFTLTISSLQAEDVAVYYCQQSSEDPWTFGQGTKLEIKR
0.63 nM	3.5 nM	3.5 nM	–	–	–	humanized anti-TfR Fab 5H12 VH5 (C33D)/Vk4 (Fab, V domains shown) VH: QVQLVQSGAEVKKPGASVKVSCKASGYSFTDYDINWVRQAPGQGLEWMGWIYPGSGNTRYSERFKGRVTITRDTSASTAYMELSSLRSEDTAVYYCAREDYYPYHGMDYWGQGTLVTVSS VL: DIVMTQSPDSLAVSLGERATINCRASESVDGYDNSFMHWYQQKPGQPPKLLIFRASNLESGVPDRFSGSGSGTDFTLTISSLQAEDVAVYYCQQSSEDPWTFGQGTKLEIKR
0.69 nM	2.1 nM	2.1 nM	–	–	–	humanized anti-TfR Fab 5H12 VH5 (C33Y)/Vk3 (Fab, V domains shown) VH: QVQLVQSGAEVKKPGASVKVSCKASGYSFTDYYINWVRQAPGQGLEWMGWIYPGSGNTRYSERFKGRVTITRDTSASTAYMELSSLRSEDTAVYYCAREDYYPYHGMDYWGQGTLVTVSS VL: DIVLTQSPDSLAVSLGERATINCRASESVDGYDNSFMHWYQQKPGQPPKLLIFRASNLESGVPDRFSGSGSRTDFTLTISSLQAEDVAVYYCQQSSEDPWTFGQGTKLEIKR

— patent US20240016952A1 (published 2024)
